From paper doi:10.1101/2023.01.08.523168 (bioRxiv, 2023)
Read-outs that look alike come from different tables or passages of the source. No end group written: not given here. *: point of attachment. Oxazole(5-CO) = O=C(c1cnco1)*; Crotonyl(E) = C/C=C/C(=O)*; 2Furoyl = O=C(c1ccco1)*; Butyryl = CCCC(=O)*

T1: AF9 YEATS domain (human, UniProt P42568 1-138)
T1 sequence (looked up): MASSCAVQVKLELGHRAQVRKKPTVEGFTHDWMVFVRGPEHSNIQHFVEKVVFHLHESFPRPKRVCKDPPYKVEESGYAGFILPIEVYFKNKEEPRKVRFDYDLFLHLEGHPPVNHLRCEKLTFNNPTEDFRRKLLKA

T2: 6x His-tagged ENL YEATS domain (human, UniProt Q03111 1-138)
T2 sequence (looked up): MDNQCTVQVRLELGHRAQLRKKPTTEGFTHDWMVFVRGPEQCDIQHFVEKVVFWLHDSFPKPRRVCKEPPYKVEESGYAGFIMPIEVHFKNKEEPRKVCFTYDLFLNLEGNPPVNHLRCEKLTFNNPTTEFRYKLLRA

T3: NanoLuc luciferase (NLuc)-ENL YEATS fusion protein (human, UniProt Q03111 1-148)
T3 sequence (looked up): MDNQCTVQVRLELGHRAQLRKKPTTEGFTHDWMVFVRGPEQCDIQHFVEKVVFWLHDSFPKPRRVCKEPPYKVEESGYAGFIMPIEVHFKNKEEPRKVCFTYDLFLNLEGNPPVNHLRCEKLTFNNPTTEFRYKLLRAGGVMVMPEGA


Assays:
[1] = target: T1, AF9 YEATS domain; test: AlphaScreen or HTRF
[2] = target: T2, 6x His-tagged ENL YEATS domain; test: AlphaScreen or HTRF
[3] = target: T2, 6x His-tagged ENL YEATS domain; test: BLI
[4] = target: T1, AF9 YEATS domain; test: BLI
[5] = target: T3, NanoLuc luciferase (NLuc)-ENL YEATS …; test: FRET or BRET
[6] = target: T3, NanoLuc luciferase (NLuc)-ENL YEATS …; test: FRET or BRET; remark: listed apart in the source
[7] = target: T3, NanoLuc luciferase (NLuc)-ENL YEATS …; test: FRET or BRET; remark: listed apart in the source

Binder	fold lower potency (IC50) toward AF9 YEATS than toward ENL YEATS [1] [fold]	IC50 [2] [nM]	Kd [3] [nM]	Kd [4] [nM]	IC50 [5] [nM]	IC50 [6] [nM]	fold selectivity for ENL YEATS over AF9 [4] [fold]	IC50 [7] [nM]	koff [3] [s⁻¹]	kon [3] [M⁻¹ s⁻¹]
YDVYCYK(2Furoyl)-NH2 [ENL-S1f]	7.7	22	10.3	144						
Ac-VYCYK(2Furoyl)-NH2 [tENL-S1f]					4100 ± 1100	6400 ± 1600	12	4200 ± 1100		
YDVYCYK(Crotonyl(E))-NH2 [ENL-S1c]	18	20	16.2	147						
YDVYCYK(Oxazole(5-CO))-NH2 [ENL-S1o]	23	10	2	55.1						
YDVYCYK(Butyryl)-NH2 [ENL-S1]	4	63	36.3	205					0.00226	62300
WWIIEK(Butyryl)G-NH2 [ENL-S2]		1220	881						0.00554	6290
